Reference: doi:10.1101/131276
Blank lines part the entries; values can stand above or below the substance they belong to.

Legend:
Test in all cases: non-reducing SDS-PAGE and Western blot
[1] = biological target: Gbb15 made by cleavage at the atypical S0 site (from gbb mS1 or gbb mNSmS1), HA-tagged (Drosophila)
[2] = biological target: Gbb38 from gbb mS1, HA-tagged (Drosophila)
[3] = biological target: proGbb, the uncleaved Gbb proprotein from gbb mNSmS1, HA-tagged (Drosophila)
[4] = biological target: proGbb, the uncleaved Gbb proprotein from gbb mNSmS1mS0, HA-tagged (Drosophila)

Sequence of Gbb15 made by cleavage at the atypical S0 site (from gbb mS1 or gbb mNSmS1), HA-tagged (ligand) (P27091 37-455): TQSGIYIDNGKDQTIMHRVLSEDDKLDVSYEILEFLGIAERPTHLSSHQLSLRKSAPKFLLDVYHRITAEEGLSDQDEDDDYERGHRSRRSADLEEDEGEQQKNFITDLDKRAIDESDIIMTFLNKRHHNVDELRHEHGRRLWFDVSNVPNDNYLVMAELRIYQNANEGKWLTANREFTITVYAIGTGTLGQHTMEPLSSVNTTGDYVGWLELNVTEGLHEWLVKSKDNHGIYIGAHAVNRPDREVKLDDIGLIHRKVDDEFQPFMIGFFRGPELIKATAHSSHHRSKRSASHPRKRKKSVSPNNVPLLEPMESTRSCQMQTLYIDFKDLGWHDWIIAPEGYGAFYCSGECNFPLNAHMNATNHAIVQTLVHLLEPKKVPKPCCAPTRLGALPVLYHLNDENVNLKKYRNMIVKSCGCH

stoichiometry N [1]: 2
Substance: Gbb15 made by cleavage at the atypical S0 site (from gbb mS1 or gbb mNSmS1), HA-tagged (ligand)

stoichiometry N [2]: 2
Substance: Gbb38 from gbb mS1, HA-tagged (ligand)

stoichiometry N [3]: 2
Substance: proGbb, the uncleaved Gbb proprotein from gbb mNSmS1, HA-tagged (natural protein)

stoichiometry N [4]: 2
Substance: proGbb, the uncleaved Gbb proprotein from gbb mNSmS1mS0, HA-tagged (natural protein)
